8 molecules from PMC10724065, “Evolution of a plant growth-regulatory protein interaction specificity” (Nature Plants, 2023) can be followed below.

Residue numbers refer to the chain shown, from its start. Numbers in names are those of the source.

Assay [1] addresses Marchantia polymorpha MpDELLA (yeast prey fusion). Nature of the assay: yeast 2-hybrid. To be noted: parent: est. 180; read off a plot.
The target of assay [2] is A. thaliana GAI (yeast prey fusion) (UniProt Q9LQT8). Nature of the assay: yeast 2-hybrid. To be noted: parent: est. 37; read off a plot.
For assay [3], the target named is T1, His-tagged GAI (Arabidopsis thaliana, UniProt Q9LQT8 1-533).
T1 construct: GAI of A. thaliana; also called His-GAI; His-tagged AtGAI; source: E. coli BL21, purified (Ni-NTA agarose)
T1 sequence (looked up): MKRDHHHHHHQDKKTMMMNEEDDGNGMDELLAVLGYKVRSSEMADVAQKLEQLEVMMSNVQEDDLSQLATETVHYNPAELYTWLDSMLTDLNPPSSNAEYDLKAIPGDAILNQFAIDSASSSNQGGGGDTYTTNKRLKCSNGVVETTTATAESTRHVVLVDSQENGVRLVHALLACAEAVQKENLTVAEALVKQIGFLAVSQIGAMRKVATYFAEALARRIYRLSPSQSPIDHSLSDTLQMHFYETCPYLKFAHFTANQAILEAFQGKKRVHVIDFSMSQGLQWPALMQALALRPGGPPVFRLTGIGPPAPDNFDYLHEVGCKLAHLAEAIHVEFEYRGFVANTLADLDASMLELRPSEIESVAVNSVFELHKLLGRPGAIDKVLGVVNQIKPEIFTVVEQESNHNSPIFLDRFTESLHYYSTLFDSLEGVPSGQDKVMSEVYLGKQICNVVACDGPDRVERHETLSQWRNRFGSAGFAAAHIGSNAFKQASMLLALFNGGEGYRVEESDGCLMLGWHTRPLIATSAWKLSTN
Nature of the assay: pull-down; 5 μg His-GAI/gai held on Ni-NTA agarose, 5 μg MBP-SLY1/sly1 added, 1 h at 4 °C, five washes, immunoblot with anti-His and anti-MBP. To be noted: both partners purified. Background: In western blotting, separated proteins are transferred to a membrane and probed.

The target of assay [4] is T1, His-tagged GAI. Nature of the assay: pull-down; 5 μg His-GAI held on Ni-NTA agarose, 5 μg MBP-SLY1/sly1 added with an equal amount of GST-GID1C and 0.1 mM GA3, 1 h at 4 °C, immunoblot with anti-His, anti-MBP and anti-GST. To be noted: both partners purified.

Regarding “Marchantia polymorpha MpSLY1 (yeast bait fusion) H147K”, the response (β-galactosidase units) in assay [1] amounted to 130.

Take “Marchantia polymorpha MpSLY1 (yeast bait fusion) R118P”: the response (β-galactosidase units) in assay [1] was 50.

On to “Marchantia polymorpha MpSLY1 (yeast bait fusion) S149T”, for which the response (β-galactosidase units) in assay [1] was determined as 100.

For the molecule “Marchantia polymorpha MpSLY1 (yeast bait fusion) Y108F”, the response (β-galactosidase units) in assay [2] worked out at 17.

B1: MBP-tagged AtSLY1 (natural protein, Arabidopsis thaliana, UniProt Q9STX3 1-151, looked up)
chain: MKRSTTDSDLAGDAHNETNKKMKSTEEEEIGFSNLDENLVYEVLKHVDAKTLAMSSCVSKIWHKTAQDERLWELICTRHWTNIGCGQNQLRSVVLALGGFRRLHSLYLWPLSKPNPRARFGKDELKLTLSLLSIRYYEKMSFTKRPLPESK
notes: AtSLY1 of A. thaliana; also called MBP-SLY1; source: E. coli BL21, purified (amylose resin)
Consider B1, for which, in the assay with His-tagged GAI [3], the binding result was “binds”.

B2: MBP-sly1^gar2-1 (E138K) (natural protein, Arabidopsis thaliana, UniProt Q9STX3 1-151, looked up)
chain: B1 chain with E138K
notes: AtSLY1 of A. thaliana with E138K; cloned into pMAL-c2X; also called MBP-tagged Atsly1^gar2-1; source: E. coli BL21, purified (amylose resin)
B2: the binding result in the assay with His-tagged GAI [3] is on record as “binds”.

B3: MBP-tagged Atsly1^H104Y (natural protein, Arabidopsis thaliana, UniProt Q9STX3 1-151, looked up)
chain: B1 chain with H104Y
notes: AtSLY1 of A. thaliana with H104Y; cloned into pMAL-c2X; source: E. coli BL21, purified (amylose resin)
As for B3, in the assay with His-tagged GAI [3], the binding result is listed as “binds”.

B4: GST-GID1C (receptor, Arabidopsis thaliana, UniProt Q940G6 1-344, looked up)
chain: MAGSEEVNLIESKTVVPLNTWVLISNFKLAYNLLRRPDGTFNRHLAEFLDRKVPANANPVNGVFSFDVIIDRQTNLLSRVYRPADAGTSPSITDLQNPVDGEIVPVIVFFHGGSFAHSSANSAIYDTLCRRLVGLCGAVVVSVNYRRAPENRYPCAYDDGWAVLKWVNSSSWLRSKKDSKVRIFLAGDSSGGNIVHNVAVRAVESRIDVLGNILLNPMFGGTERTESEKRLDGKYFVTVRDRDWYWRAFLPEGEDREHPACSPFGPRSKSLEGLSFPKSLVVVAGLDLIQDWQLKYAEGLKKAGQEVKLLYLEQATIGFYLLPNNNHFHTVMDEIAAFVNAECQ
notes: GID1C, gibberellin receptor of A. thaliana; Used together with 0.1 mM GA3; also called GST-AtGID1C; source: E. coli BL21, purified (glutathione beads)
With B4, in the assay with His-tagged GAI [4], the binding result is recorded as “binds”.
